Data on four molecules can be found in patent publication WO2019131769A1 (dated 2019).

For orientation: Kd means the free concentration of one partner at which half of the binding sites on the other are occupied at equilibrium, for simple one-to-one binding.

Ends that are not written are not given here.

For assay [1], the target named is T1, human PAD4 (Peptidylarginine deiminase 4) (human, UniProt Q9UM07 1-663). Nature of the assay: cell-based or functional assay.
The target of assay [2] is T1, human PAD4 (Peptidylarginine deiminase …). Nature of the assay: SPR (Biacore T200), antibody captured on rabbit anti-mouse polyclonal antibody on CM5 chip, human PAD4 as analyte. Background: SPR reads the build-up and loss of mass on a sensor chip optically.
The target in assay [3] is T2, BSA-modified peptide antigen FFTYHIRHGEVHC (SEQ ID NO: 1) (human, also: BSA carrier conjugate).
T2 construct: also called peptide corresponding to positions 633-644 of PAD4
T2 peptide: FFTYHIRHGEVHC
Nature of the assay: ELISA, culture supernatant of CHO cells on immobilised BSA-modified peptide. In general terms: In an ELISA, binding on a coated surface is turned into a signal by an enzyme label.

T1 sequence (Q9UM07 whole entry): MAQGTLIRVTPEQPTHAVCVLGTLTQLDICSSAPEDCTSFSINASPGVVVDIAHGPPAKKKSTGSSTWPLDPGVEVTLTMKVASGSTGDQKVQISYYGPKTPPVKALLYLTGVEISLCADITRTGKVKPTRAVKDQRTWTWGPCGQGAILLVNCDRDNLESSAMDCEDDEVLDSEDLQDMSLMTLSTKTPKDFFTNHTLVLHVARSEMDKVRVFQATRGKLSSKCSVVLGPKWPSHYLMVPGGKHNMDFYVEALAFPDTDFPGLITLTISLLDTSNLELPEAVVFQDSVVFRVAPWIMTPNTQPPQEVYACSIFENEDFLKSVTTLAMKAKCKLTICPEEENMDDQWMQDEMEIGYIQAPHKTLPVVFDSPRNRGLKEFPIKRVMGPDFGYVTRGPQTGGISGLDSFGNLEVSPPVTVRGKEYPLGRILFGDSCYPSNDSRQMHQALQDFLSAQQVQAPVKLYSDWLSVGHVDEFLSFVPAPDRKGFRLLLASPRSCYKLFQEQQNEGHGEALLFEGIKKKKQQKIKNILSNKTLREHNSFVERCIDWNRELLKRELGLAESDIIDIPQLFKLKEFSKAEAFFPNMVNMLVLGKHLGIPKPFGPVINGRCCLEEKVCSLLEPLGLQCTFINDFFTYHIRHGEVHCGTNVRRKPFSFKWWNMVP

B1: P1 (antibody, V domains shown)
VH: AVTLDESGGGLQTPGGGLSLICKASGFHMRSYAMNWVRQAPGKGLEFVAGIDNSGRYRNYGAAVKGRATISRDNGQSTVRLQLNNLRAEDTGIYYCAKNFDVGGDGCDWSSGCIDAWGHGTEVIVS
VL: ASTQPSSVSANPGETVKITCSGGSSTYYGWYQQKSPGSAPVTVIYQNTKRPSGLSSRFSGSKSGSTATLTITGVQAEDEAVYFCGGYDTRTYAGIFGAGTTLTVL
notes: Chicken variable regions recombined into mouse chimeric antibody (IgG1) expression vectors; also called anti-PAD4 antibody P1; P1 etc
As for B1, the “inhibition rate of citrullinating activity of active PAD4 (BAEE substrate, colorimetric)” value (shortened to “inhibition rate”) in assay [1] was 63%. In assay [2], this molecule gave a Kd of 73 nM.

B2: P3 (antibody, V domains shown)
VH: AVTLDESGGGLQTPGGGLSLICKASGSTIRSYAMNWVRQAPGKGLEFVAGIDNSGRYTNYGAAVKGRATISRDNGQSTVRLQLNNLRAEDTGIYYCAKNVDVAGYGCDWSSGCIDTWGHGTEVIVS
VL: ASTQPASVSANPGETVKITCSGGSSTYYGWYQQKSPGSAPVTVIYENTNRPSDIPSRFSGSKSGSTATLTITGVQADDEAVYFCGGYDRTNYAGIFGAGTTLTVL
notes: Chicken variable regions recombined into mouse chimeric antibody (IgG1) expression vectors; also called anti-PAD4 antibody P3; P1 etc
In the case of B2, the “inhibition rate” value in assay [1] came out at 80%. Further, in assay [3], the binding result is “binds”. In assay [2], this molecule showed a Kd of 24 nM.

B3: P4 (antibody, V domains shown)
VH: AVTLDESGGGLQTPGGGLSLICKASGFSMRSYAMNWVRQAPGKGLEFVAGIDNTGRYTGYGSAVKGRATISRDNGQSTVRLQLNNLRAEDTGTYYCAKNVDVAGSGCDWSSGCIDAWGHGTEVTVS
VL: ASTQPSSVSANPGETVKITCSGGSSTYYGWYQQKSPGSAPVTVIYQNTKRPSGLSSRFSGSKSGSTATLTITGVQAEDEAVYFCGGYDTRTYAGIFGAGTTLTVL
notes: Chicken variable regions recombined into mouse chimeric antibody (IgG1) expression vectors; also called anti-PAD4 antibody P4; P1 etc
B3: the “inhibition rate” value in assay [1] worked out at 82%. This molecule displayed an equilibrium dissociation constant (Kd) in assay [2] of 15 nM.

B4: P2 (antibody, V domains shown)
VH: AVTLDESGGGLQTPGGALSLVCKASGFHMRSYAMNWVRQAPGKGLEFVAGIDNSGRYRNYGAAVKGRATISRDNGQSTVRLQLNNLRAEDTGIYYCAKNFDVGGDGCDWSSGCIDAWGHGTEVIVS
VL: ASTQPASVSANPGETVKITCSGGSSTYYGWYQQKSPGSAPVTVIYQNTNRPSDIPSRFSGSKSGSTATLTITGVQAEDEAVYFCGGYDRSNYAGIFGAGTTLTVL
notes: Chicken variable regions recombined into mouse chimeric antibody (IgG1) expression vectors; also called anti-PAD4 antibody P2; P1 etc
Turning to B4, the “inhibition rate” value in assay [1] is 62%. Also, the binding result in assay [3] is listed as “binds”. The same molecule had a Kd in assay [2] of 31 nM.
